Results from patent US20250145722A1 (TRUEBINDING, published 2025).

Key:
[1] = target: T1, human Galectin-3 (Gal3), full-length recombinant (human, UniProt P17931 2-250); assay: ELISA: Gal3 coated, His-tagged TREM2 detected with anti-6xHis-HRP; concentrations of the bars not printed on the sheet
T1 construct: treated here as one molecule; also called hGAL3; hGal3

[2] = target: T1, human Galectin-3 (Gal3), full-length …; assay: blocking ELISA, Gal3 coated, VEGFR3-Fc, antibody 20 µg/ml
[3] = target: T1, human Galectin-3 (Gal3), full-length …; assay: blocking ELISA, Gal3 coated, EGFR-Fc, antibody 20 µg/ml
[4] = target: T1, human Galectin-3 (Gal3), full-length …; assay: blocking ELISA, Gal3 coated, PDGFR beta-Fc, antibody 20 µg/ml
[5] = target: T1, human Galectin-3 (Gal3), full-length …; assay: blocking ELISA, Gal3 coated, PDGFR alpha-Fc, antibody 20 µg/ml
[6] = target: T1, human Galectin-3 (Gal3), full-length …; assay: blocking ELISA, Gal3 coated, biotin-Abeta42 oligomer
[7] = target: T1, human Galectin-3 (Gal3), full-length …; assay: blocking ELISA, Gal3 coated, TREM2-His
[8] = target: T1, human Galectin-3 (Gal3), full-length …; assay: blocking ELISA, Gal3 coated, biotin-α-synuclein aggregates
[9] = target: T1, human Galectin-3 (Gal3), full-length …; assay: blocking ELISA, Gal3 coated, biotin-Tau aggregates
[10] = target: T1, human Galectin-3 (Gal3), full-length …; assay: blocking ELISA, Gal3 coated, biotin-Abeta42 peptide
[11] = target: T1, human Galectin-3 (Gal3), full-length …; assay: not stated. Exponent is printed without a minus sign; value taken as a negative power of ten because the column is a KD in M
mouse Gal3 = mouse Gal3 (mouse, UniProt P16110 2-264, limits assumed); assay: not stated (FIG. 50)
Sequence of mouse Gal3 (P16110 2-264 limits assumed): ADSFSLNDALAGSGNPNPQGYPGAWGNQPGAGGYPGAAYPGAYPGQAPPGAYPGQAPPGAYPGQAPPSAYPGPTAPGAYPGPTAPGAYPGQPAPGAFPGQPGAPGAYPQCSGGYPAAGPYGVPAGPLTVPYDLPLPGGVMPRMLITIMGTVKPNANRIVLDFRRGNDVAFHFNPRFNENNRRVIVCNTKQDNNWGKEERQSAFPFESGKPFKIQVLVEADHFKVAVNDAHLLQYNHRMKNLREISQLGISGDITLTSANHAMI

[12] = target: T1, human Galectin-3 (Gal3), full-length …; assay: not stated (FIG. 50)
[13] = target: T1, human Galectin-3 (Gal3), full-length …; assay: titration of the antibody on a panel of galectins, read as OD450; set-up not given, species of the galectins not given
[14] = target: T1, human Galectin-3 (Gal3), full-length …; assay: blocking ELISA, Gal3 coated, biotin-TLR4
[15] = target: T1, human Galectin-3 (Gal3), full-length …; assay: blocking ELISA, Gal3 coated, biotin-TGFβR2
[16] = target: T1, human Galectin-3 (Gal3), full-length …; assay: cell-based or functional assay
[17] = target: T1, human Galectin-3 (Gal3), full-length …; assay: blocking ELISA, Gal3 coated, biotin-APP695
[18] = target: T1, human Galectin-3 (Gal3), full-length …; assay: ELISA: Gal3 coated at 2 or 3 µg/ml, protein at 2 or 3 µg/ml, anti-human IgG-HRP, A450

T1 sequence (P17931 2-250 limits assumed): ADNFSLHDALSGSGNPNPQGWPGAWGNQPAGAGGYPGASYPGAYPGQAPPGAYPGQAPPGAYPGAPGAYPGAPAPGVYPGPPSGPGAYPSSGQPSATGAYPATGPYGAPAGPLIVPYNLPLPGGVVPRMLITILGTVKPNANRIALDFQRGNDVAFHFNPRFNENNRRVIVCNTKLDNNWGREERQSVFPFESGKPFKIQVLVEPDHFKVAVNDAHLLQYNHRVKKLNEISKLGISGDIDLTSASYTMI

B1: recombinant human TREM2 protein (Sino Biological, 11084-H08H) (receptor, UniProt Q9NZC2 19-174, looked up)
chain: HNTTVFQGVAGQSLQVSCPYDSMKHWGRRKAWCRQLGEKGPCQRVVSTHNLWLLSFLRRWNGSTAITDDTLGGTLTITLRNLQPHDAGLYQCQSLHGSEADTLRKVLVEVLADPLDHRDAGDLWFPGESESFEDAHVEHSISRSLLEGEIPFPPTS
notes: Detected with anti-6x His tag antibody, so His-tagged; tag not described
[1]
  binding result: binds

B2: 24D12.2H9 (antibody, human IgG4 S228P, kappa, V domains shown)
VH: QVQLKQSGPGLVQPSQSLSITCTVSGFSLTSYGVHWVRQAPGKGLEWLGVIWSGGSTDYNAAFMSRLSISKDNSKSQVFFKMNSLQADDTAIYYCAKSPDGYDVAWFGYWGQGTLVTVSA
VL: DIVMTQSHKFMSTSVGDRVSITCKASQDVRTAVAWYQQKPGQSPKLLIYWASTRHTGVPDRFTGSGSGTDFTLTLSNVQSEDLADYFCQQYSSYPWTFGGGTKLEIKR
[2]
  % blocking of Gal3-VEGFR3 binding: < 30%
[3]
  % blocking of Gal3-EGFR binding: < 30%
[4]
  % blocking of Gal3-PDGFR beta binding: < 30%
[5]
  % blocking of Gal3-PDGFR alpha binding: < 30%

B3: F847C.11B1 (antibody, human IgG4 S228P, kappa, V domains shown)
VH: EVQLQQSGPELVKPGASVKISCKASGNTFTDHNMHWVKQSHGKSLEWIGYIYPYNGGTGYNQKFKSKATLTVDNSSSTVYMELRSLTSEDSAVYYCARGEYDYLAWFAYWGQGTLVTVSA
VL: EIVLTQSPASLSVTTGEKVTIRCITSIDIDDDMNWYQQKPGEPPKLLISEGNTLRPGVPSRFSSSGYGTDFVFTIENTLSEDVADYYCLQSDNKPLTFGAGTKLELKR
notes: also called 847.11B1
[6]
  % blocking of Gal3-Abeta42 oligomer binding: < 26%
[7]
  % blocking of Gal3-TREM2 binding: < 47%
[8]
  % blocking of Gal3-α-synuclein aggregates binding: < 50%
[9]
  % blocking of Gal3-Tau aggregates binding: < 50%
[10]
  % blocking of Gal3-Abeta42 peptide binding: < 46%
[11]
  Kd: 4.29 nM

B4: F847C.10B9 (antibody, human IgG4 S228P, kappa)
heavy: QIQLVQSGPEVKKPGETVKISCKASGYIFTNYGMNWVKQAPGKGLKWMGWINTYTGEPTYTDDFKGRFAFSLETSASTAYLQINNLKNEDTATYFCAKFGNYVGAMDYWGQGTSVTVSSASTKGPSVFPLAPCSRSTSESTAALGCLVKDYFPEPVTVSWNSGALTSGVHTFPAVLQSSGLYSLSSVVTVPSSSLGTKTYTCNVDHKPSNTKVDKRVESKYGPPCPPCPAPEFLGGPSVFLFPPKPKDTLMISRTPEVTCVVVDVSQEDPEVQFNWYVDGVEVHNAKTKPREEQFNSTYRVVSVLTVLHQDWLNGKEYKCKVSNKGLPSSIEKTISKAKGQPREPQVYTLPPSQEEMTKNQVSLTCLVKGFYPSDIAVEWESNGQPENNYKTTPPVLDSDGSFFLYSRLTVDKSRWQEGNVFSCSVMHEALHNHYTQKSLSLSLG
light: DIRMTQSPSSLSASLGDTITITCHASQNINVWLSWYQQKPGNIPKLLIYKASNLHTGVPSRFSGSGSGTGFTLTISSLQPEDIATYYCQQGQSYPYTFGGGTKLELKRTVAAPSVFIFPPSDEQLKSGTASVVCLLNNFYPREAKVQWKVDNALQSGNSQESVTEQDSKDSTYSLSSTLTLSKADYEKHKVYACEVTHQGLSSPVTKSFNRGEC
notes: also called 847.10B9
[8]
  % blocking of Gal3-α-synuclein aggregates binding: > 90%
[9]
  % blocking of Gal3-Tau aggregates binding: > 90%
[11]
  Kd: 13600 nM

B5: F847C.12F12 (antibody, V domains shown)
VH: QIQLVQSGPELKKPGETVKISCKASGYTFTNYGMNWVKQAPGKGLKWMGWINTYTGEPTYVDDFKGRFAFSLETSASTAYLRINNLKNEDTATYFCAKFGNYVGAMDYWGQGTSVTVSS
VL: DIQVIQSPSSLSASLGDTITITCHASQNINVWLSWYQQKPGNIPKLLIYKASNLHTGVPSRFSGSGSGTGFTLTISSLQPEDIATYYCQQGQSYPYTFGGGTKLELKR
notes: also called 84712F12
[8]
  % blocking of Gal3-α-synuclein aggregates binding: > 90%
[9]
  % blocking of Gal3-Tau aggregates binding: > 90%
[11]
  Kd: 19.2 nM

B6: TB001 (antibody, IgG4, V domains shown)
VH: QVQLVQSGSELKKPGASVKVSCKASGYTFTNYGMNWVRQAPGQGLKWMGWINTNTGEPTYVEEFTGRFVFSLETSVSTAYLQISSLKAEDTAVYFCAPYDNFFAYWGQGTTVTVSS
VL: DIVLTQSPLSLPVTPGEPASISCRSSKSLLYKDGKTYLNWFLQKPGQSPQLLIYLMSTHASGVPDRFSGSGSGTDFTLKISRVEAEDVGVYYCQQLVDYPLTFGGGTKLEIKR
notes: also called IMT001; IMT001-4
[6]
  % blocking of Gal3-Abeta42 oligomer binding: > 90%
  IC50: 3.17 nM
[7]
  % blocking of Gal3-TREM2 binding: > 90%
Mouse Gal3
  Kd: 2.3 nM
[12]
  Kd: 3.6 nM
[13]
  EC50 (read off the curve): ~0.007 µg/mL
[10]
  % blocking of Gal3-Abeta42 peptide binding: > 90%
[14]
  % blocking of Gal3-TLR4 binding: > 90%
[15]
  IC50: 12.8 nM
[16]
  IC50 of TGF-β-induced pro-collagen production in LX-2 cells: 0.25 µg/mL
[17]
  % blocking of Gal3-APP695 binding: > 90%

B7: TB006 (antibody, V domains shown)
VH: QVQLVQSGAEVKKPGASVKVSCKASGYSFTNYYMHWVRQAPGQRLEWMGWIYPGSGNTNYNEKFQGRVTITADTSASTAYMELSSLRSEDTAVYYCSTAPGGFDVWGQGTTVTVSS
VL: DIVMTQTPLSLSVTPGQPASISCKSSKSLLHSDGITYLYWYLQKPGQSPQLLIYRMSNLASGVPDRFSGSGSGTDFTLKISRVEAEDVGVYYCAQMLEFPLTFGQGTKLEIKR
notes: Humanized variant derived from murine 4A11.2B5; also called 4A11.H3L1; IMT006
[6]
  % blocking of Gal3-Abeta42 oligomer binding: > 90%
  IC50: 2.38 nM
[7]
  % blocking of Gal3-TREM2 binding: > 90%
Mouse Gal3
  Kd: 40000 nM
[12]
  Kd: 8.9 nM
[9]
  % blocking of Gal3-Tau aggregates binding: > 90%
[10]
  % blocking of Gal3-Abeta42 peptide binding: > 90%
[14]
  % blocking of Gal3-TLR4 binding: > 90%
[15]
  IC50: 11.5 nM
[16]
  IC50 of TGF-β-induced pro-collagen production in LX-2 cells: 0.23 µg/mL
[17]
  % blocking of Gal3-APP695 binding: > 90%

B8: mTB001 (antibody, mouse IgG2a, V domains shown)
VH: QIQLVQSGPELKKPGETVKISCKASGYTFTNYGMNWVKQAPGKGLKWMGWINTNTGEPTYVEEFKGRFAFSLETSASTAYLQINNLKNEDTATYFCAPYDNFFAYWGQGTLVTVSA
VL: DIVITQDELSNPVTSGESVSISCRSSKSLLYKDGKTYLNWFLQRPGQSPQLLIYLMSTHASGVSDRFSGSGSGTDFTLEISRVKAEDVGVYYCQQLVDYPLTFGAGTKLELKR
notes: also called mIMT001; murine IMT001
[3]
  % blocking of Gal3-EGFR binding: > 70%
[4]
  % blocking of Gal3-PDGFR beta binding: > 70%
[5]
  % blocking of Gal3-PDGFR alpha binding: > 70%
[16]
  decrease in TGFβ induction of ColA1 mRNA in LX2 cells (qRT-PCR): 63%

B9: 15G7.2A7 (antibody, human IgG4 S228P, kappa, V domains shown)
VH: EVQLQQSGPELVKPGASVKISCKASGYTFTDYYMNWVKQSHGKSLEWIGDINPNNGGTNYNQKFKGKATLTVDKSSSTAYMELRSLTSEDSAVYYCTSGYGFPYWGQGTLVTVSA
VL: DIQMNQSPSSLSASLGDTISITCRASQNINIWLSWYQQKPGNIPQLLIYKASNLHTGVPSRFSGSGSGTDFTLTISSLQPEDIATYYCLQGQSYPLTFGAGTKLVMKR
notes: also called 15FG7.2A7
[7]
  % blocking of Gal3-TREM2 binding: > 90%
[8]
  % blocking of Gal3-α-synuclein aggregates binding: > 90%
[9]
  % blocking of Gal3-Tau aggregates binding: > 90%
[10]
  % blocking of Gal3-Abeta42 peptide binding: > 90%
[14]
  % blocking of Gal3-TLR4 binding: > 90%
[17]
  % blocking of Gal3-APP695 binding: > 90%

B10: recombinant human TNF sRI (R&D Systems, 372-RI/CF) (receptor, UniProt P19438 30-211, looked up)
chain: LVPHLGDREKRDSVCPQGKYIHPQNNSICCTKCHKGTYLYNDCPGPGQDTDCRECESGSFTASENHLRHCLSCSKCRKEMGQVEISSCTVDRDTVCGCRKNQYRHYWSENLFQCFNCSLCLNGTVHLSCQEKQNTVCTCHAGFFLRENECVSCSNCKKSLECTKLCLPQIENVKGTEDSGTT
notes: Detected with anti-human IgG
[18]
  binding result: binds

B11: 4G2.2G6 (antibody, human IgG4 S228P, kappa, V domains shown)
VH: QIQLVQSGPDLKKPGETVKISCKASGYTFTTYVMSWVKQAPGKDLKWMGWINTHSGVPTYADDFKGRFDFSLETSANTAFLQINNLKNEDTATYFCTRDGNDGDAMDNWGQGTSVTVSS
VL: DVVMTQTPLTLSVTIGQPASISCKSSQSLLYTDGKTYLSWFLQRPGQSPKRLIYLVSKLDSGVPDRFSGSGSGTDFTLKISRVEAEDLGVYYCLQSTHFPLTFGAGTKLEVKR
[2]
  % blocking of Gal3-VEGFR3 binding: < 30%

B12: 13G4.2F8 (antibody, human IgG4 S228P, kappa, V domains shown)
VH: QVQLQQPGAELVKPGASVKLSCKASGYTFTSYWMHWVKQRPGQGLEWIGMIHPNSGSTDYNEKFKNKATLNVDKSSSTAYIQLSSLTSEDSAVYYCTRWGIYYYARDYWGQGTTLTVSS
VL: DIVMTQSQKFMSTSVGERVSITCKASQNVGTNVAWYQQKAGQSLELLIYGASNRHTGVPDRFTGSGSGTDFTLTITNVQSEDMTNYFCEQYSNFPLTFGAGTKLELKR
[2]
  % blocking of Gal3-VEGFR3 binding: < 30%
[3]
  % blocking of Gal3-EGFR binding: < 30%
[4]
  % blocking of Gal3-PDGFR beta binding: < 30%
[8]
  % blocking of Gal3-α-synuclein aggregates binding: < 50%
[9]
  % blocking of Gal3-Tau aggregates binding: < 50%
[5]
  % blocking of Gal3-PDGFR alpha binding: < 30%
